How the values were obtained:
Assay in all cases: pulldown
[1] = target: T1, qkr58E-2 (Drosophila melanogaster) (UniProt Q5BID2); conditions: 20 nM protein, 1.5 uM RNA pool; 20 mM HEPES pH 7.8, 70 mM KCl, 10 mM NaCl, 10% glycerol, 2 mM DTT, 0.1 ug/uL BSA; 30 min, 4 C
T1 sequence: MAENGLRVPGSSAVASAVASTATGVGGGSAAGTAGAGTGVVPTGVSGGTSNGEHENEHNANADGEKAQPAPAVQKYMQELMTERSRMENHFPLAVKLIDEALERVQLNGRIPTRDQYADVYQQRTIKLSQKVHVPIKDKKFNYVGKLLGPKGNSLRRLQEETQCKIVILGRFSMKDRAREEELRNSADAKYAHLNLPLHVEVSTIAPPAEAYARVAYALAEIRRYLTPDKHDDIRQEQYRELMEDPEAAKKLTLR

[2] = target: pabpc4 (Xenopus tropicalis) (UniProt A0A8J0QFT8); conditions: 20 nM protein, 1.5 uM RNA pool; 20 mM HEPES pH 7.8, 70 mM KCl, 10 mM NaCl, 10% glycerol, 2 mM DTT, 0.1 ug/uL BSA; 30 min, 4 C
[3] = target: T2, Hrb27C (Drosophila melanogaster) (UniProt P48809); conditions: 20 nM protein, 1.5 uM RNA pool; 20 mM HEPES pH 7.8, 70 mM KCl, 10 mM NaCl, 10% glycerol, 2 mM DTT, 0.1 ug/uL BSA; 30 min, 4 C (protocol of this paper; not …); cited from earlier work
T2 sequence: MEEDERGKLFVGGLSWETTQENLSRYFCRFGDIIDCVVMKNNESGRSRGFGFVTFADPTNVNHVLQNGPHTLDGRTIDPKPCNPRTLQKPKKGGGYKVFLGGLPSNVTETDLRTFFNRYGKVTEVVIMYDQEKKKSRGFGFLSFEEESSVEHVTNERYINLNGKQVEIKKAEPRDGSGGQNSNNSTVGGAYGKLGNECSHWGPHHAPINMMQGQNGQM

[4] = target: PGTG_09691 (Puccinia graminis) (UniProt E3KI53); conditions: 20 nM protein, 1.5 uM RNA pool; 20 mM HEPES pH 7.8, 70 mM KCl, 10 mM NaCl, 10% glycerol, 2 mM DTT, 0.1 ug/uL BSA; 30 min, 4 C
[5] = target: T3, grld-1 (Caenorhabditis elegans) (UniProt H2KYB8); conditions: 20 nM protein, 1.5 uM RNA pool; 20 mM HEPES pH 7.8, 70 mM KCl, 10 mM NaCl, 10% glycerol, 2 mM DTT, 0.1 ug/uL BSA; 30 min, 4 C
T3 sequence: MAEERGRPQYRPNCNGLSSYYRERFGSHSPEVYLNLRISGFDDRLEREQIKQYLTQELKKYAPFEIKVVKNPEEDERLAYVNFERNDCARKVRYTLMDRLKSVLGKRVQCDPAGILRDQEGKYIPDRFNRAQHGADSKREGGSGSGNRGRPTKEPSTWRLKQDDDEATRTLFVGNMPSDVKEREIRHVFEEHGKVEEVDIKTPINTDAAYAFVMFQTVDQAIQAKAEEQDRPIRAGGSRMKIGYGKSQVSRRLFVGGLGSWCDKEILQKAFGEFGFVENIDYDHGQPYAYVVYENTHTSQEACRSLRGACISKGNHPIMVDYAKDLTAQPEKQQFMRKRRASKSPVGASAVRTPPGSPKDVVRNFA

[6] = target: T4, PK01594.1 (Cannabis sativa) (UniProt A0A803NG34); conditions: 20 nM protein, 1.5 uM RNA pool; 20 mM HEPES pH 7.8, 70 mM KCl, 10 mM NaCl, 10% glycerol, 2 mM DTT, 0.1 ug/uL BSA; 30 min, 4 C
T4 sequence: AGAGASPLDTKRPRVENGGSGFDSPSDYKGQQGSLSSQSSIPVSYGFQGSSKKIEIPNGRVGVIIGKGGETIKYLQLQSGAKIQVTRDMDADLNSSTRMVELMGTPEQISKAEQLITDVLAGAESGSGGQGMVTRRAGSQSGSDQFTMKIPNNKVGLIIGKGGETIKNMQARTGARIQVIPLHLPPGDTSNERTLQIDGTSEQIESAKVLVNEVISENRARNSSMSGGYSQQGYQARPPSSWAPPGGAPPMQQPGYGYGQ

[7] = target: T5, rsp-3 (Caenorhabditis elegans) (UniProt Q9NEW6); conditions: 20 nM protein, 1.5 uM RNA pool; 20 mM HEPES pH 7.8, 70 mM KCl, 10 mM NaCl, 10% glycerol, 2 mM DTT, 0.1 ug/uL BSA; 30 min, 4 C
T5 sequence: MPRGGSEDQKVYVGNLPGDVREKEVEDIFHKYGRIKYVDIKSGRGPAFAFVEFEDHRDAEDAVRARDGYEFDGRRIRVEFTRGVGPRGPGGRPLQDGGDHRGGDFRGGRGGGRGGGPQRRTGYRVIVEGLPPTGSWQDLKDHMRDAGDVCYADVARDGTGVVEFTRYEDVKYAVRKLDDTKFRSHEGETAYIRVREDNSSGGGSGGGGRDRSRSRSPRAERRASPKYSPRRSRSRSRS

[8] = target: T6, rbm14 (Xenopus tropicalis) (UniProt A0A8J0QJ94); conditions: 20 nM protein, 1.5 uM RNA pool; 20 mM HEPES pH 7.8, 70 mM KCl, 10 mM NaCl, 10% glycerol, 2 mM DTT, 0.1 ug/uL BSA; 30 min, 4 C
T6 sequence: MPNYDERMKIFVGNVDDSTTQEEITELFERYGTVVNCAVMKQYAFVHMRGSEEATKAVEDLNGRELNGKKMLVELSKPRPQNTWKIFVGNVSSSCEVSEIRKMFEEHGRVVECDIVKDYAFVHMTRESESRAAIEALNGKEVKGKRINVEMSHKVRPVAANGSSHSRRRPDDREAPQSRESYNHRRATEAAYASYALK

[9] = target: T7, Smp_006320 (Schistosoma mansoni) (UniProt G4VQQ6); conditions: 20 nM protein, 1.5 uM RNA pool; 20 mM HEPES pH 7.8, 70 mM KCl, 10 mM NaCl, 10% glycerol, 2 mM DTT, 0.1 ug/uL BSA; 30 min, 4 C
T7 sequence: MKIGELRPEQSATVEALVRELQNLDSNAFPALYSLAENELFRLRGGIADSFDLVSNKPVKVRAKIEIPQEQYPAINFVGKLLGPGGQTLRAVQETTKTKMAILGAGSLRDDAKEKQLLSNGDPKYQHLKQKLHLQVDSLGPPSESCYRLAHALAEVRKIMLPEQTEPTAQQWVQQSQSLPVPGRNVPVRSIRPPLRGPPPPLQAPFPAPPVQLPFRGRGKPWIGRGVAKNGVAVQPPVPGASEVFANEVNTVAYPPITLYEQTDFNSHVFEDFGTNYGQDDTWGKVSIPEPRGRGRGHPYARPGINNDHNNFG

Chain of pabpc4 (Xenopus tropicalis) (A0A8J0QFT8 entry or part of it): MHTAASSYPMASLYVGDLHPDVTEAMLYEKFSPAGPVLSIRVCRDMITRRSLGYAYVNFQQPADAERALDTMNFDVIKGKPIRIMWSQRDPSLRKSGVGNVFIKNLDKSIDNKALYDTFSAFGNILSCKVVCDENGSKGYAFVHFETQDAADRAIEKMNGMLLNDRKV

Substance: AUAAUA [RNAcompete motif RNCMPT00637]
- binding signal (z-score (mean of top ten 7-mers)) [1]: 13

Substance: AAAAAAG [RNAcompete motif RNCMPT00511]
- binding signal (z-score (mean of top ten 7-mers)) [2]: 13.4

Substance: UAGGNUA [RNAcompete motif RNCMPT00093]
- binding signal (z-score (mean of top ten 7-mers)) [3]: 12.1

Substance: UUGCAC [RNAcompete motif RNCMPT00482]
- binding signal (z-score (mean of top ten 7-mers)) [4]: 11.4

Substance: ACUACUA [RNAcompete motif RNCMPT00509]
- binding signal (z-score (mean of top ten 7-mers)) [5]: 8.74

Substance: AUAUUGU [RNAcompete motif RNCMPT00478]
- binding signal (z-score (mean of top ten 7-mers)) [6]: 7.33

Substance: AGGACGA [RNAcompete motif RNCMPT00503]
- binding signal (z-score (mean of top ten 7-mers)) [7]: 7.55

Substance: CGACGA [RNAcompete motif RNCMPT00514]
- binding signal (z-score (mean of top ten 7-mers)) [8]: 10.1

Substance: AUAAAUA [RNAcompete motif RNCMPT00500]
- binding signal (z-score (mean of top ten 7-mers)) [9]: 8.79
